Consider four molecules from patent publication US8124424B2, “Single molecule-format bioluminescent probe” (National Institute of Advanced Industrial Science and …, priority 2007, dated 2012).

Test [1] deals with T1, AR LBD (Homo sapiens, UniProt P10275).
T1 sequence (P10275 672-910): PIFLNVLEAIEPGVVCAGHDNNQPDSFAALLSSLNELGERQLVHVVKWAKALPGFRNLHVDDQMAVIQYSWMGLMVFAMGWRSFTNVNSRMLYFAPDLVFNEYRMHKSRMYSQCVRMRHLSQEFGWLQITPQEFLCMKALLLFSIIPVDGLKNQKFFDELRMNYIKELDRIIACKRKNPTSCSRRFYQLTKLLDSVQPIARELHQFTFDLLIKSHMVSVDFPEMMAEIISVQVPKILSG
Nature of the test: Inhibitory effects of androgen antagonists on DHT-induced luminescence, HeLa cells carrying pAR-NC and pTK-RLuc. The format is cell-based. Also noted: The cDNA-encoding AR LBD (672-910 AA) was modified by PCR; expressed in transfected cells; host or cells: HeLa. The note with it: 5×10^−4 M antagonist 20 min, then 10^−5 M DHT 20 min, FIG. 8. The method, then: HeLa cells were transfected with pAR-NC and pTK-RLuc, and extensively incubated for 16 h. […] The luminescence intensities of each well were determined with a Dual-luciferase assay kit (Promega).

Test [2] addresses T1, AR LBD. In words: Androgenic activity of ligands with pSimbe (CBLuc) probes in MCF-7 cells (dose-response, time-course, repetitive measurement, ligand panel). The note with it: two stimulations with 10^−5 M DHT for 20 minutes with medium replacement, FIG. 21. The format is cell-based. The method, then: As controls, vehicle #1 (0.1% DMSO) and vehicle #2 (0.02M phosphoric buffer saline (PBS)) were tested.

Test [3] deals with T1, AR LBD. Nature of the test: Ligand selection of pSimbe-LXA probe in four cell lines (MCF-7, CHO, HeLa, NIH 3T3). The format is cell-based. Also noted: The cDNA-encoding AR LBD (672-910 AA) was modified by PCR; expressed in transfected cells; host or cells: HeLa. The note with it: 10^−5 M E2, T, DHT, 20 minutes, FIG. 16.
The subject of test [4] is AR LBD. Nature of the test: Comparison of the DHT-induced luminescence of probes pAR-CN, pAR-NC, pAR-mut in HeLa cells. The test is classed as cell-based, human. Particulars: 10^−5 M DHT stimulation, FIG. 3.
Protocol: Cervical carcinoma-derived HeLa cells were sub-cultured in 12-well plates in Dulbecco's modified eagle's medium (DMEM; Sigma) supplemented with 10% steroid-free fetal bovine serum (FBS) and 1% penicillin-streptmycin (P/S) at 37° C. in a 5% CO2 incubator. HeLa cells in 12-well plates were transfected with pAR-NC, pAR-CN, or pAR-mut using a transfection reagent, TransIT-LT1 (Minis), which guarantees about 8% transfection efficiency to HeLa cells when incubated for 24 h. The cells were incubated for 12 h and then used for the following experiments.
HeLa cells in 12-well plates were transfected with the plasmids and incubated for 16 h. […] The recovered enzyme activities by ligands were estimated with a luminescence substrate kit, Bright Glo (Promega) or Dual-luciferase assay kit (Promega), according to the manufacturer's manuals. […] After a 3 min incubation at 37° C., the luminescence intensities from the cell lysates were recorded with a luminometer (Minilumat LB9506; Berthold). The protein amounts in the cell lysates were subsequently determined using a Bradford reagent for a normalization of the luminescence intensities. In specific, the firefly luminescence, which was normalized against the determined protein amount, was expressed as “RLU/protein (Bright Glo)”. The unit means the firefly luminescence intensity from the 1 μg of cell lysate.
Test [5] deals with T2, androgen receptor ligand binding domain (AR LBD; 672-910 AA) (human, UniProt P10275 672-910).
T2 sequence (looked up): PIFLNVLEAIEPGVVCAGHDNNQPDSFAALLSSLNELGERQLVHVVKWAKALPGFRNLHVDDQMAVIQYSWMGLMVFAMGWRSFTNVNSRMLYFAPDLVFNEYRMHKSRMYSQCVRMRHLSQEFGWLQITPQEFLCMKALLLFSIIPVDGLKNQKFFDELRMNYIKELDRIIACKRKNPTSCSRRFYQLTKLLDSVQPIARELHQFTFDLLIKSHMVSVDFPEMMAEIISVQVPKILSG
In words: cell-based or functional assay.

As to `CC12CC1(C)C(=O)N(c1cc(Cl)cc(Cl)c1)C2=O` (centres unmarked) [procymidone], at AR LBD [1], the “percentage inhibition of the DHT-induced luminescence” value was determined as 68%.

For the molecule “pSimbe-LXA: CBLuc probe with AR LBD and reverse sequence of LXXLL motif from Xenopus TIF2 (SSDQLLRHLIKHK)”, the “reversibility of luminescence on repeated DHT stimulation” value with AR LBD [2] was “reversible recovery in the luminescence intensities”. In addition, the “luminescence intensity versus the background in cell lines” value with AR LBD [3] is on record as “marked increase in the luminescence intensity versus the background”.

Consider “pAR-mut: plasmid/probe with an alanine mutant (AQNLF) of the FQNLF motif (RGAAQNLFQSV)”, for which, in the test on AR LBD [4], the “luminescence intensities of probe-carrying cells compared among the three probes” value is “four times weaker luminescence intensities than the cells carrying pAR-NC”.

On to RGAFQNLFQSV [AR N-terminal motif peptide (11 AA; 20RGAFQNLFQSV30), 'FQNLF' motif of human AR NTD], for which the “t1/2 of the rise in luminescence after 10^-6 M DHT, HeLa cells carrying pAR-NC” value in test [5] came out at 4.5 min.
